Reference: publication PMC12192683

Molecular target: low-density lipoprotein receptor-related protein 1 (LRP1), full-length, purified from human placenta (human) (UniProt Q07954)
Assay: SPR; Biacore 3000; receptor amine-coupled to CM5 chip; ligand flowed in HBS-P (0.01 M HEPES pH 7.4, 0.15 M NaCl, 0.005% P20) with 1 mM CaCl2, 10 ul/min, 25 C; kinetic fit to a 1:1 Langmuir model

low-density lipoprotein receptor-related protein 1 (LRP1), full-length, purified from human placenta (human), sequence (Q07954 20-4544): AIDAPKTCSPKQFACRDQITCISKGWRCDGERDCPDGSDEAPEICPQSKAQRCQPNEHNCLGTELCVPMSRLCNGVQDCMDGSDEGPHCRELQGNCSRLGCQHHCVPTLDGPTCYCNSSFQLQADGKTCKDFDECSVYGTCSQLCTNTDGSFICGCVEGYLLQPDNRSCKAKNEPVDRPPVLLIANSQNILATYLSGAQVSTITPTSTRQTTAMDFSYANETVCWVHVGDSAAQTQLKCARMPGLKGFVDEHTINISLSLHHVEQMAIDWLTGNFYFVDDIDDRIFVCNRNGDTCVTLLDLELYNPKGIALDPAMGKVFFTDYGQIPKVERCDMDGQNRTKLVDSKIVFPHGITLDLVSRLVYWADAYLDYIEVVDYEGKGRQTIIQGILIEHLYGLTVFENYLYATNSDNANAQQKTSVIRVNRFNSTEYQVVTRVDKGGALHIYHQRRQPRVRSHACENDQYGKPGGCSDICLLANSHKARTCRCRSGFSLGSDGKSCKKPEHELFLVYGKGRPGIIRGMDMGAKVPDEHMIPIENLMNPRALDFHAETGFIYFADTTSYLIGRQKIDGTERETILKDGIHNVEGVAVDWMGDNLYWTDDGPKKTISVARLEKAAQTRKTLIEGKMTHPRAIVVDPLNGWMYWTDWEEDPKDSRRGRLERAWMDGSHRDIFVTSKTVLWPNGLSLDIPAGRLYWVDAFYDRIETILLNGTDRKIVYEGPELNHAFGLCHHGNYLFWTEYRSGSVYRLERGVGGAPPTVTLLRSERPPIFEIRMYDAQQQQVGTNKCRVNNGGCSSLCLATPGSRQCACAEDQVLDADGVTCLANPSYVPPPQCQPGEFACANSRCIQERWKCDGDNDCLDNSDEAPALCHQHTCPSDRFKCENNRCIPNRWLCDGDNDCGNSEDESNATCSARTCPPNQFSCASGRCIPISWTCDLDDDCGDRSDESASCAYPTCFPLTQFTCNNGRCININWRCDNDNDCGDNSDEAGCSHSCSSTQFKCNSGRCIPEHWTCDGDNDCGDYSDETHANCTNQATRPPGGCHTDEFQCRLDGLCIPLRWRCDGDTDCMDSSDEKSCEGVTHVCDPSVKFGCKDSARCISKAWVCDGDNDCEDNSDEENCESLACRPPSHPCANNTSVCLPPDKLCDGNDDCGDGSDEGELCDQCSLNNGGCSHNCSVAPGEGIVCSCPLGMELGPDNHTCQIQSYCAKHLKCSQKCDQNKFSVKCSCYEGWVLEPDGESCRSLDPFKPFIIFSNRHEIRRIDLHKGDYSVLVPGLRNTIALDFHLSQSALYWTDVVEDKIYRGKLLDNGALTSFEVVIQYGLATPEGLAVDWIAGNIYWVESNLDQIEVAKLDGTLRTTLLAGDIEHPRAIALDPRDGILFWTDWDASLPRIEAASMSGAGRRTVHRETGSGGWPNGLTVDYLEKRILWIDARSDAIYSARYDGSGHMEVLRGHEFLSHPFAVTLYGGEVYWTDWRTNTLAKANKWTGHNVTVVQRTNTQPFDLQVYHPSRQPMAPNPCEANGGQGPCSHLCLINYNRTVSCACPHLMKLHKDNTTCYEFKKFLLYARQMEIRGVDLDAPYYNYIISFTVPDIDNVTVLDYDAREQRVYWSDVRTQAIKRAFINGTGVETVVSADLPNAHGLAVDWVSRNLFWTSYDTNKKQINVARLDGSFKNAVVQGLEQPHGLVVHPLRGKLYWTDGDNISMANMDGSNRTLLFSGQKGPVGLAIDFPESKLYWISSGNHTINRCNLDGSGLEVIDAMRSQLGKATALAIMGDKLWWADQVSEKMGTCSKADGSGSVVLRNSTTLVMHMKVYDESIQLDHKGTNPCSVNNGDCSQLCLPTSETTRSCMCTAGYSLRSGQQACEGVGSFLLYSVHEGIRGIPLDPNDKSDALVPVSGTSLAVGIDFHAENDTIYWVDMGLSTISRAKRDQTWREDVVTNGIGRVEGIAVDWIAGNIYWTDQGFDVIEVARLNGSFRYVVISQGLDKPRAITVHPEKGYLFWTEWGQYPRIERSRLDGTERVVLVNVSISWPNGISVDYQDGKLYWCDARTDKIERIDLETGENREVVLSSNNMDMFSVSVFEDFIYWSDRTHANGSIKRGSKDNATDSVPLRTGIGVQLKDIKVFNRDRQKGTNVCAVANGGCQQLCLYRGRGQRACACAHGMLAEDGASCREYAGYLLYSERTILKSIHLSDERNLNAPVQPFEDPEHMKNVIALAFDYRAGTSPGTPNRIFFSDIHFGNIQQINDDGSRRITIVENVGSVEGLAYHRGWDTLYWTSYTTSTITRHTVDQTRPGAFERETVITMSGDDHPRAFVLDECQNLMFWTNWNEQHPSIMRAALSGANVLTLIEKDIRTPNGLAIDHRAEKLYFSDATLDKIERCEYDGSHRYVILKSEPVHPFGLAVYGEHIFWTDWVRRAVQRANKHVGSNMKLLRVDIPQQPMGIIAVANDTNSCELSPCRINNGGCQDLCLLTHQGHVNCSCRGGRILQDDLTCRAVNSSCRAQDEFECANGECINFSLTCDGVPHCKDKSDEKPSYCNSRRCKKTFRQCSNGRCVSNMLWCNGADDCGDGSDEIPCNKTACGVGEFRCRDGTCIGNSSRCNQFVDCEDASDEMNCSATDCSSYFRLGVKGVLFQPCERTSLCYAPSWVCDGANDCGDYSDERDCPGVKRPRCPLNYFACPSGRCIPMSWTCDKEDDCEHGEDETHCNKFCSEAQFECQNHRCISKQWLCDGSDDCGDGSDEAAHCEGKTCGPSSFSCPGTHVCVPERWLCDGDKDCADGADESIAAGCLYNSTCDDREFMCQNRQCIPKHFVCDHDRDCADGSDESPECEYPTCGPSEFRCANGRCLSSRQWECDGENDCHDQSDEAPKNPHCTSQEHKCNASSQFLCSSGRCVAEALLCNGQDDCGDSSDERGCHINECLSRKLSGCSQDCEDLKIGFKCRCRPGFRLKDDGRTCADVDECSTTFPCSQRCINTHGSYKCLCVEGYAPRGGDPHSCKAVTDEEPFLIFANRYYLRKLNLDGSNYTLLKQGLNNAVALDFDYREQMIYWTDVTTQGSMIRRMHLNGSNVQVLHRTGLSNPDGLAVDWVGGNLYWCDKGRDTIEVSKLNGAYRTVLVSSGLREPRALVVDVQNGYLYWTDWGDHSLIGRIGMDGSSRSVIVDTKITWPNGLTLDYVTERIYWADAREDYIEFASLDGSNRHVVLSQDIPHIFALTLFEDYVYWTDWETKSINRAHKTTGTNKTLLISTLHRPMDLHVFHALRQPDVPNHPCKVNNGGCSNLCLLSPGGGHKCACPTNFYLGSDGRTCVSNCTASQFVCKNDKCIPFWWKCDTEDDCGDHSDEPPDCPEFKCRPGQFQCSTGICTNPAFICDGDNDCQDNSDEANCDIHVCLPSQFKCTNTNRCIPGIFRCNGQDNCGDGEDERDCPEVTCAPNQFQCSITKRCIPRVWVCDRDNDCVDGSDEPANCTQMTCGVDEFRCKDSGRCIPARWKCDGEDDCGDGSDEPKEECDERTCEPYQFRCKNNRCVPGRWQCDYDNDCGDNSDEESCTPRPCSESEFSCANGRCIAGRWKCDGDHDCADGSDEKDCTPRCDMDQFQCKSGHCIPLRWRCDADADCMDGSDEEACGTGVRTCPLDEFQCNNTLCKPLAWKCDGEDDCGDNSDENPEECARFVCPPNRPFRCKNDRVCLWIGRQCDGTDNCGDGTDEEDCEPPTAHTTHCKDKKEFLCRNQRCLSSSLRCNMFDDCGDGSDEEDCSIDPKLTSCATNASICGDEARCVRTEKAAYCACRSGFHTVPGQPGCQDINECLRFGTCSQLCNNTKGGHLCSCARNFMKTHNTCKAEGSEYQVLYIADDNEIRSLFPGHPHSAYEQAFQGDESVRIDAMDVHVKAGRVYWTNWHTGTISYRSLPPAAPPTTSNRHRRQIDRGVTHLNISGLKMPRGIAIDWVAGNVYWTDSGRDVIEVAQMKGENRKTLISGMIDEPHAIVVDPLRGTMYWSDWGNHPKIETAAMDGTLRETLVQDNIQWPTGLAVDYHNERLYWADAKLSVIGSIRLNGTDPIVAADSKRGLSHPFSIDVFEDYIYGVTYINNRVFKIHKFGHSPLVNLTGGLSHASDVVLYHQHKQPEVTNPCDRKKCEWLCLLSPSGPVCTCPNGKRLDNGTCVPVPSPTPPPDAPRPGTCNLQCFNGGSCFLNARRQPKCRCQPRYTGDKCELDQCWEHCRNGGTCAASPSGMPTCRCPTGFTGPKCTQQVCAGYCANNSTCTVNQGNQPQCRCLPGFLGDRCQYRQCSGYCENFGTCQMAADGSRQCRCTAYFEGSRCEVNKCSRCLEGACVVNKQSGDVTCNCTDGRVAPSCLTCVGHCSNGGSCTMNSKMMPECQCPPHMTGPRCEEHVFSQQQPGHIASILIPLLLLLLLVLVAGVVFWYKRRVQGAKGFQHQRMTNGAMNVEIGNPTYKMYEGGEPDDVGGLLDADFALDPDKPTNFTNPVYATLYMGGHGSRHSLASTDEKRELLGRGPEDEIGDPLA

Which Kd does the source give for “SARS-CoV-2 trimeric spike protein, stabilized in prefusion conformation (from UniProt P0DTC2 14-1273) (natural protein)” here?
Its Kd is 72 nM.

And the koff?
The koff was 0.00034 s⁻¹.

What about the kon of the same substance?
Its kon is 4800 M⁻¹ s⁻¹.
